From PMC2807882

T1: Mmp53 (mouse p53) with C-terminal FlAsH tag, labelled with FlAsH (mouse (Mus musculus)), P02340
T1 chain: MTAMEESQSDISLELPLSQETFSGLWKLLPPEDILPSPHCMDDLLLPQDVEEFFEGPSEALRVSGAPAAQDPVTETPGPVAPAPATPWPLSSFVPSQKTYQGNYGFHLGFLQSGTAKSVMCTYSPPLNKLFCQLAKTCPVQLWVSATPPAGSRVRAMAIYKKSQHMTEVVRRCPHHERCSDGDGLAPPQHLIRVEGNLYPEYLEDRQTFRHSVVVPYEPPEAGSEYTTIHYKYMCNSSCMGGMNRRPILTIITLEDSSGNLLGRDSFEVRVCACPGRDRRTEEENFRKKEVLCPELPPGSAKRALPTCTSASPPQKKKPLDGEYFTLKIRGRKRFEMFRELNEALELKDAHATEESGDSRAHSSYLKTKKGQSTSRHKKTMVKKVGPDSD

T2: Mus musculus p53, full length, with C-terminal FlAsH tag, FlAsH-labelled (Mus musculus), P02340
T2 chain: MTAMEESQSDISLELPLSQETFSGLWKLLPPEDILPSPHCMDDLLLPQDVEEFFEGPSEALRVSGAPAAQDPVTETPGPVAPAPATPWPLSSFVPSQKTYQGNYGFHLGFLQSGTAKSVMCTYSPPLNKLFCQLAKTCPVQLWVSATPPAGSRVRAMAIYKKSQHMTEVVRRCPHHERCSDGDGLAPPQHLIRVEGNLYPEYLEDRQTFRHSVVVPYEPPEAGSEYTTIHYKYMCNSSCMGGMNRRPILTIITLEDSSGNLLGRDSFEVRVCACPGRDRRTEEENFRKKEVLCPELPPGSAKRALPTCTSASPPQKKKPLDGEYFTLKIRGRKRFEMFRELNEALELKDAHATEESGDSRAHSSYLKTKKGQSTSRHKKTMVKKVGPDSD


Tests used:
[1] = biological target: T1, Mmp53 (mouse p53) with C-terminal FlAsH …; experiment: dimer-tetramer equilibrium; conditions: natural protein, chains chain, FlAsH (from FlAsH-EDT2, Lumio Green) on the C-terminal CCPGCC tetra-cysteine tag, remark: other sources report otherwise
[2] = biological target: T1, Mmp53 (mouse p53) with C-terminal FlAsH …; experiment: AUC; sedimentation velocity with fluorescence detection, FlAsH-labelled protein at 5-500 nM; 150 mM NaCl, 25 mM phosphate pH 7.2, 10% glycerol, BSA 0.2 mg/mL, 1 mM beta-mercaptoethanol, 10°C; tetramer to dimers; Kd expressed in concentration of monomer; conditions: remark: other sources report otherwise
[3] = biological target: T2, Mus musculus p53, full length, with …; experiment: AUC; sedimentation velocity with fluorescence detection, FlAsH-labelled protein at 5-500 nM (monomer); 150 mM NaCl, 25 mM phosphate pH 7.2, 10% glycerol, BSA 0.2 mg/mL, 1 mM β-mercaptoethanol, 10°C; tetramer to dimers; Kd expressed in concentration of monomer; conditions: remark: other sources report otherwise

Kd [1] [nM]	fold weaker self-association (dimer-tetramer equilibrium) than Dmp53, Drp53 and ΔNp73β [2] [fold]	stoichiometry N [2]	Kd [3] [nM]	Binder
17.2	10	4	–	Mmp53 (mouse p53) with C-terminal FlAsH tag, labelled with FlAsH, P02340 1-390 (natural protein, here or on the partner: FlAsH (from FlAsH-EDT2, Lumio Green) on the C-terminal CCPGCC tetra-cysteine tag; FlAsH (from FlAsH-EDT2, Lumio Green) on the C-terminal CCPGCC tetra-cysteine tag) MTAMEESQSDISLELPLSQETFSGLWKLLPPEDILPSPHCMDDLLLPQDVEEFFEGPSEALRVSGAPAAQDPVTETPGPVAPAPATPWPLSSFVPSQKTYQGNYGFHLGFLQSGTAKSVMCTYSPPLNKLFCQLAKTCPVQLWVSATPPAGSRVRAMAIYKKSQHMTEVVRRCPHHERCSDGDGLAPPQHLIRVEGNLYPEYLEDRQTFRHSVVVPYEPPEAGSEYTTIHYKYMCNSSCMGGMNRRPILTIITLEDSSGNLLGRDSFEVRVCACPGRDRRTEEENFRKKEVLCPELPPGSAKRALPTCTSASPPQKKKPLDGEYFTLKIRGRKRFEMFRELNEALELKDAHATEESGDSRAHSSYLKTKKGQSTSRHKKTMVKKVGPDSD
–	–	–	17.2	Mus musculus p53, full length, with C-terminal FlAsH tag, FlAsH-labelled, P02340 1-390 (natural protein, here or on the partner: FlAsH (from FlAsH-EDT2, an arsenic derivative of fluorescein) on the C-terminal CCPGCC tetra-cysteine tag; FlAsH (from FlAsH-EDT2, an arsenic derivative of fluorescein) on the C-terminal CCPGCC tetra-cysteine tag) MTAMEESQSDISLELPLSQETFSGLWKLLPPEDILPSPHCMDDLLLPQDVEEFFEGPSEALRVSGAPAAQDPVTETPGPVAPAPATPWPLSSFVPSQKTYQGNYGFHLGFLQSGTAKSVMCTYSPPLNKLFCQLAKTCPVQLWVSATPPAGSRVRAMAIYKKSQHMTEVVRRCPHHERCSDGDGLAPPQHLIRVEGNLYPEYLEDRQTFRHSVVVPYEPPEAGSEYTTIHYKYMCNSSCMGGMNRRPILTIITLEDSSGNLLGRDSFEVRVCACPGRDRRTEEENFRKKEVLCPELPPGSAKRALPTCTSASPPQKKKPLDGEYFTLKIRGRKRFEMFRELNEALELKDAHATEESGDSRAHSSYLKTKKGQSTSRHKKTMVKKVGPDSD
